The target in experiment [1] is T1, defense-associated sirtuin 2 (DSR2), full-length wild type (Bacillus subtilis 29R, UniProt P0DXN8 1-1005).
T1 construct: DSR2 from Bacillus subtilis 29R, WP_029317421; Cloned into the 2CT-10 vector (Addgene plasmid #55209) with His-MBP tag and TEV site; DSR2-TTP was cloned into a pET-derived vector with an N-terminal His tag; also called WT DSR2; full-length DSR2; source: E. coli Rosetta (DE3), purified (Ni-NTA, TEV cleavage, anion exchange, gel filtration); not shown: His, N-terminal, cleaved; MBP, N-terminal, …
T1 sequence (looked up): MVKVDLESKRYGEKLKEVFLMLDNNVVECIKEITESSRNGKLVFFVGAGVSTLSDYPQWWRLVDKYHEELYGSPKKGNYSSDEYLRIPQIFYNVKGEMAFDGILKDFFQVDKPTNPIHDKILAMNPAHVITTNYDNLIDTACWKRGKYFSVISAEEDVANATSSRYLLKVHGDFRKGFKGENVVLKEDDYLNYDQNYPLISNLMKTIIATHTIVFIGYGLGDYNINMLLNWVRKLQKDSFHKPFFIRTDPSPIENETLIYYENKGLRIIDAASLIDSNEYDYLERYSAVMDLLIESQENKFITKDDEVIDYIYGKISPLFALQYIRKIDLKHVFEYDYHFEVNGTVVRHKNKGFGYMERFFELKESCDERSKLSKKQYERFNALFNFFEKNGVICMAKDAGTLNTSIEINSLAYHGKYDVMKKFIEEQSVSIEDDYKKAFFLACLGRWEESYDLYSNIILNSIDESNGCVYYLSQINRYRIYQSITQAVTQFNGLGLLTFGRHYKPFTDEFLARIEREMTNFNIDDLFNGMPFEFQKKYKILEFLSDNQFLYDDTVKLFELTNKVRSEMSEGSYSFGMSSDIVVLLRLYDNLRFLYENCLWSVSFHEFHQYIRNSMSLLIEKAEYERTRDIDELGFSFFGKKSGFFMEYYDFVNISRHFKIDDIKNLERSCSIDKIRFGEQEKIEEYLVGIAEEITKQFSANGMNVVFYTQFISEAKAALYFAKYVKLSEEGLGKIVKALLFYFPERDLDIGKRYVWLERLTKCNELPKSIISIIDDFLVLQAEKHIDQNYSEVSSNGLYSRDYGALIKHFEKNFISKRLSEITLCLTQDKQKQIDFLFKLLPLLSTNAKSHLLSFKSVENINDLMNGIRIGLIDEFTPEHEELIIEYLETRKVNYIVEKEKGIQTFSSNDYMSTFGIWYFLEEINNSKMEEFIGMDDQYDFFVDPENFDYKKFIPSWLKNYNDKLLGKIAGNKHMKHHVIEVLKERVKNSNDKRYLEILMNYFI
In words: AUC; sedimentation velocity, samples at 1 mg/mL in gel-filtration buffer (25 mM Tris-HCl pH 7.5, 150 mM NaCl, 2 mM DTT), SEDFIT and SEDPHAT. Conditions: both partners purified.

The next experiment concerns the target T2, DSR2 K960A/D993A (Bacillus subtilis 29R, UniProt P0DXN8 1-1005, K960A | D993A).
T2 construct: DSR2 from Bacillus subtilis 29R, WP_029317421, with K960A and D993A; source: E. coli Rosetta (DE3), purified (Ni-NTA, TEV cleavage, anion exchange, gel filtration); not shown: His, N-terminal, cleaved; MBP, N-terminal, cleaved
T2 sequence (looked up): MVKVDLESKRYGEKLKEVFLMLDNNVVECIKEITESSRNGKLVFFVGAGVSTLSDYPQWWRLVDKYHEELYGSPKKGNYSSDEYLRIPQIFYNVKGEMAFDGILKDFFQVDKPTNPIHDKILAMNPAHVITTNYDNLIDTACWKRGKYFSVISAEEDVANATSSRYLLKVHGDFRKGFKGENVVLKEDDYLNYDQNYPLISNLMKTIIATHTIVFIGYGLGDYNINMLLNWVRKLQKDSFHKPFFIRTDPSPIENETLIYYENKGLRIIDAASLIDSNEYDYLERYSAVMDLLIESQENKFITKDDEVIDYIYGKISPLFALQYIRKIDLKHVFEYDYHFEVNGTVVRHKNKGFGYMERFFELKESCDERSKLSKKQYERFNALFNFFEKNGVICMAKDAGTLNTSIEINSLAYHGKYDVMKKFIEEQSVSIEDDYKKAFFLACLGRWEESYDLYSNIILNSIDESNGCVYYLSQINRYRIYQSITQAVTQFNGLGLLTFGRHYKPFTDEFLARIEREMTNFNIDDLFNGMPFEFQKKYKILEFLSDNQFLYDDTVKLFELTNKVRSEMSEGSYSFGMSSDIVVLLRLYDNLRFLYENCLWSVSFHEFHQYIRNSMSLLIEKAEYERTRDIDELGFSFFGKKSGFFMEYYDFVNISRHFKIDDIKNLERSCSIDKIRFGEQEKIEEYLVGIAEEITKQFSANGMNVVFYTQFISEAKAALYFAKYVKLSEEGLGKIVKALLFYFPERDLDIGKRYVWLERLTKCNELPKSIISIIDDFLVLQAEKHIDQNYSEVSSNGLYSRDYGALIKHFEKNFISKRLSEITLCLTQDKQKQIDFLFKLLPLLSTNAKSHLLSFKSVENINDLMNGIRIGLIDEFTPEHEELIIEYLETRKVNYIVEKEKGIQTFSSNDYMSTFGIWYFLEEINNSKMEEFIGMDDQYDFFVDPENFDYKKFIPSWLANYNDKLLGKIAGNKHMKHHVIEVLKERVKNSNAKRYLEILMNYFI
In words: pull-down; N-terminal His-tagged TTP or DSAD1 on Ni-NTA agarose beads, excess untagged DSR2 variants added, 1 h at 4 °C, 25 mM Tris-HCl pH 7.5, 300 mM NaCl, washes with 10 mM imidazole, SDS-PAGE with Coomassie staining. Particulars: both partners purified.

B1: DSR anti-defense 1 (DSAD1), His-tagged (natural protein)
chain: MIEIFKDTGATHDLVYHSKINTFVWDVEFDIVLSDSKELNKCYFVKCFNPYRINGKCDFAVSSIDIFSEGKRLLIENEFNFKITKAVHVATSKDVTEIVLHLSERISSPFPIVKEVVYLD
notes: phage-encoded DSAD1, WP_004399562; aa 1-9 not built in the cryo-EM model; Cloned into a pET-derived vector with an N-terminal His tag; also called anti-DSR2 protein; His-tagged DSAD1; source: E. coli Rosetta (DE3), purified (Ni-NTA, anion exchange, gel filtration); not shown: His, N-terminal, kept
On to B1, for which the binding result (in experiment [1]; with DSR2 K960A/D993A) was “binds” throughout.
